Data on six sequences can be found in the supplement of paper PMC11246515.

The data set is described as follows: total protein half-life in vivo (active degradation + dilution); higher = more stable protein.
Setting [1] is: E. coli NCM3722 delta-clpP delta-lon delta-hslV, growth: N-lim chemostat, doubling time 6 h.
The mark [2] stands for this setting: E. coli NCM3722 delta-clpP, growth: N-lim chemostat, doubling time 6 h.
Setting [3] is: E. coli NCM3722 delta-hslV, growth: N-lim chemostat, doubling time 6 h.
[4] abbreviates: E. coli NCM3722 delta-lon, growth: N-lim chemostat, doubling time 6 h.
[5] abbreviates: E. coli NCM3722 delta-smpB, growth: N-lim chemostat, doubling time 6 h.
[6] abbreviates: wild type E. coli NCM3722, growth: C-lim chemostat, doubling time 3 h.
The mark [7] stands for this setting: wild type E. coli NCM3722, growth: C-lim chemostat, doubling time 6 h.
[8] abbreviates: wild type E. coli NCM3722, growth: C-lim chemostat, doubling time 12 h.
Setting [9] is: wild type E. coli NCM3722, growth: N-lim chemostat, doubling time 6 h.
Setting [10] is: wild type E. coli NCM3722, growth: N-lim chemostat, doubling time 12 h.
The mark [11] stands for this setting: wild type E. coli NCM3722, growth: P-lim chemostat, doubling time 6 h.
Where [12] appears, read: wild type E. coli NCM3722, growth: P-lim chemostat, doubling time 12 h.

± gives the standard deviation of the averaged measurements.

“MSGTLLAFDFGTKSIGVAVGQRITGTARPLPAIKAQDGTPDWNIIERLLKEWQPDEIIVGLPLNMDGTEQPLTARARKFANRIHGRFGVEVKLHDERLSTVEARSGLFEQGGYRALNKGKVDSASAVIILESYFEQGY [P0A8I1]”: the “total protein half-life in vivo” value by setting is: under setting [1], 4.82 ± 0.066 h; under setting [2], 4.88 h; under setting [3], 3.57 ± 0.011 h; under setting [4], 4.27 ± 0.32 h; under setting [5], 3.5663 ± 0.00095 h; under setting [6], 2.88 ± 0.18 h. The “total protein half-life in vivo” value was 5.4 ± 0.77 h under setting [7]; 10.2 ± 0.33 h under setting [8]; 3.8577 ± 0.0028 h under setting [9]; 7.41 ± 2.2 h under setting [10]; 4.95 ± 0.11 h under setting [11]; 8.63 ± 2.5 h under setting [12].

On to “MKLPVREFDAVVIGAGGAGMRAALQISQSGQTCALLSKVFPTRSHTVSAQGGITVALGNTHEDNWEWHMYDTVKGSDYIGDQDAIEYMCKTGPEAILELEHMGLPFSRLDDGRIYQRPFGGQSKNFGGEQAARTAAAADRTGHALLHTLYQQNLKNHTTIFSEWYALDLVKNQDGAVVGCTALCIETGEVVYFKARATVLATGGAGRIYQSTTNAHINTGDGVGMAIRAGVPVQDMEMWQFHPTGIAGAGVLVTEGCRGEGGYLLNKHGERFMERYAPNAKDLAGRDVVARSIMIEIREGRGCDGPWGPHAKLKLDHLGKEVLESRLPGILELSRTFAHVDPVKEPIPVIPTCHYMMGGIPTKVTGQALTVNEKGEDVVVPGLFAVGEIACVSVHGANRLGGNSLLDLVVFGRAAGLHLQESIAEQGALRDASESDVEASLDRLNRWNNNRNGEDPVAIRKALQECMQHNFSVFREGDAMAKGLEQLKVIRERLKNARLDDTSSEFNTQRVECLELDNLMETAYATAVSANFRTESRGAHSRFDFPDRDDENWLCHSLYLPESESMTRRSVNMEPKLRPAFPPKIRTY [P0AC41]”, for which the “total protein half-life in vivo” value is, setting by setting: under setting [1], 6.32 ± 0.098 h; under setting [2], 6.04 ± 0.75 h; under setting [3], 5.73 ± 0.33 h; under setting [4], 5.17 ± 0.66 h; under setting [5], 5.69 ± 0.26 h; under setting [6], 3.17 ± 0.15 h. For the same sequence, the “total protein half-life in vivo” value reads like this: under setting [7], 6.49 ± 0.39 h; under setting [8], 11.6 ± 1.4 h; under setting [9], 5.81 ± 0.35 h; under setting [10], 11 ± 0.49 h; under setting [11], 6.2 ± 0.12 h; under setting [12], 13.3 ± 0.3 h.

In the case of “MPQISRYSDEQVEQLLAELLNVLEKHKAPTDLSLMVLGNMVTNLINTSIAPAQRQAIANSFARALQSSINEDKAH [P0AD24]”, the “total protein half-life in vivo” value runs as follows: under setting [1], 6.24 ± 0.65 h; under setting [2], 4.76 h; under setting [3], 5.69 ± 0.2 h; under setting [4], 4.63 ± 1.3 h; under setting [5], 4.16 ± 1.4 h; under setting [6], 2.99 ± 0.041 h. In addition, the “total protein half-life in vivo” value is 5.16 ± 0.18 h under setting [7]; 10.1 ± 0.73 h under setting [8]; 3.54 ± 0.42 h under setting [9]; 9.19 h under setting [10]; 5.83 h under setting [11]; 10.4 h under setting [12].

For “MSFNTIIDWNSCTAEQQRQLLMRPAISASESITRTVNDILDNVKARGDEALREYSAKFDKTTVTALKVSAEEIAAASERLSDELKQAMAVAVKNIETFHTAQKLPPVDVETQPGVRCQQVTRPVASVGLYIPGGSAPLFSTVLMLATPASIAGCKKVVLCSPPPIADEILYAAQLCGVQDVFNVGGAQAIAALAFGTESVPKVDKIFGPGNAFVTEAKRQVSQRLDGAAIDMPAGPSEVLVIADSGATPDFVASDLLSQAEHGPDSQVILLTPAADMARRVAEAVERQLAELPRAETARQALNASRLIVTKDLAQCVEISNQYGPEHLIIQTRNARELVDSITSAGSVFLGDWSPESAGDYASGTNHVLPTYGYTATCSSLGLADFQKRMTVQELSKEGFSALASTIETLAAAERLTAHKNAVTLRVNALKEQA”, the “total protein half-life in vivo” value runs as follows: under setting [1], 4.6 ± 0.29 h; under setting [2], 4.43 ± 0.94 h; under setting [3], 3.96 ± 0.073 h; under setting [4], 4.89 ± 0.47 h; under setting [5], 4.3 ± 0.25 h; under setting [6], 3.3 ± 0.18 h. Moreover, the “total protein half-life in vivo” value under setting [7] turned out to be 5.97 ± 0.23 h; the “total protein half-life in vivo” value under setting [8] turned out to be 10.8 ± 1.1 h; the “total protein half-life in vivo” value under setting [9] was found to be 4.23 ± 0.25 h; the “total protein half-life in vivo” value under setting [10] is 6.67 ± 0.38 h; the “total protein half-life in vivo” value under setting [11] is 5.595 ± 0.053 h; the “total protein half-life in vivo” value under setting [12] stood at 11.9 ± 0.35 h.

For “MSRRVATITLNPAYDLVGFCPEIERGEVNLVKTTGLHAAGKGINVAKVLKDLGIDVTVGGFLGKDNQDGFQQLFSELGIANRFQVVQGRTRINVKLTEKDGEVTDFNFSGFEVTPADWERFVTDSLSWLGQFDMVCVSGSLPSGVSPEAFTDWMTRLRSQCPCIIFDSSREALVAGLKAAPWLVKPNRRELEIWAGRKLPEMKDVIEAAHALREQGIAHVVISLGAEGALWVNASGEWIAKPPSVDVVSTVGAGDSMVGGLIYGLLMRESSEHTLRLATAVAALAVSQSNVGITDRPQLAAMMARVDLQPFN [P0AEW9]”, the “total protein half-life in vivo” value stood at 5.41 ± 0.1 h under setting [1]; 6.29 ± 0.82 h under setting [2]; 6.11 ± 0.88 h under setting [3]; 5.57 ± 1.3 h under setting [4]; 5.34 ± 0.068 h under setting [5]; 3.11 ± 0.06 h under setting [6]. The “total protein half-life in vivo” value was 7.05 ± 0.084 h under setting [7]; 12.2 ± 0.77 h under setting [8]; 5.61 ± 0.2 h under setting [9]; 10.74 ± 0.098 h under setting [10]; 6.22 ± 0.24 h under setting [11]; 13.5 ± 2.4 h under setting [12].

Consider “MELYLDTSDVVAVKALSRIFPLAGVTTNPSIIAAGKKPLDVVLPQLHEAMGGQGRLFAQVMATTAEGMVNDALKLRSIIADIVVKVPVTAEGLAAIKMLKAEGIPTLGTAVYGAAQGLLSALAGAEYVAPYVNRIDAQGGSGIQTVTDLHQLLKMHAPQAKVLAASFKTPRQALDCLLAGCESITLPLDVAQQMISYPAVDAAVAKFEQDWQGAFGRTSI”, for which the “total protein half-life in vivo” value is, setting by setting: under setting [1], 4.96 ± 0.38 h; under setting [2], 4.345 ± 0.017 h; under setting [3], 4.474 ± 0.0021 h; under setting [4], 4.44 ± 0.26 h; under setting [5], 4.3899 ± 0.004 h; under setting [6], 2.703 ± 0.021 h. Also, the “total protein half-life in vivo” value under setting [7] was 5.36 h; the “total protein half-life in vivo” value under setting [8] is 8.19 ± 0.81 h; the “total protein half-life in vivo” value under setting [9] worked out at 3.81 ± 0.38 h; the “total protein half-life in vivo” value under setting [10] worked out at 7.04 ± 2.2 h; the “total protein half-life in vivo” value under setting [11] stood at 5.72 ± 0.61 h; the “total protein half-life in vivo” value under setting [12] worked out at 10 ± 0.64 h.
